Test results published in patent US7799901B2, “Modulators of the function of FAS receptors and other proteins” (Yeda Research and Development Co. Ltd., priority 1995, dated 2010).

Tests used:
Lamin = experiment: Two-hybrid β-galactosidase expression filter assay in SFY526 yeast, DNA-binding domain hybrid Lamin; settings: specificity test
Source text: To isolate proteins interacting with the intracellular domain of the FAS-R, the yeast two-hybrid system was used (Fields and Song, 1989). […] In this system, the genes for the candidate interacting proteins are cloned into separate expression vectors. In one expression vector, the sequence of the one candidate protein is cloned in phase with the sequence of the GAL4 DNA-binding domain to generate a hybrid protein with the GAL4 DNA-binding-domain, and in the other vector, the sequence of the second candidate protein is cloned in phase with the sequence of the GAL4 activation domain to generate a hybrid protein with the GAL4-activation domain. The two hybrid vectors are then co-transformed into a yeast host strain having a lacZ or HIS3 reporter gene under the control of upstream GAL4 binding sites. […]
The yeast two-hybrid test was further applied to evaluate the specificity of binding of MACH to MORT-1, in particular, to define the region in MORT-1 to which MACH binds, as well as to determine which of the MACH ORFs interacts with MORT-1, the procedures being as set forth herein above in Examples 1 and 2. Briefly, various MORT-1 and MACH constructs were prepared for testing the interaction of the proteins encoded by the Gal4 DNA-binding domain and activation domain constructs within transfected SFY526 yeast cells as assessed by the β-galactosidase expression filter assay. […]

[1] = system: breast carcinoma MCF7 cells; experiment: Cell death on overexpression of MACH isoforms in MCF7 cells; assay type: cell-based, human; settings: β-galactosidase-expressing cells with apoptopic morphology, 20 h after transfection
Protocol: To explore the involvement of MACH in cell-death induction, the effect of overexpression of various MACH isoforms on cell viability was examined. The test was performed by transfecting MACH expression vectors together with a β-galactosidase expression vector as a transfection marker into human embryonic kidney 293-EBNA cells and breast carcinoma MCF7 cells.
(§1) In brief, 293-EBNA cells, MCF7 human breast carcinoma cells and HeLa HtTA-1 cells were grown in Dulbecco's modified Eagle's minimal essential medium supplemented with 10% fetal calf serum, nonessential amino acids, 100 U/ml penicillin and 100 μg/ml streptomycin. Cell tissue culture dishes (5×10^5 293-EBNA cells, 3×10^5 s MCF7 cells or 3×10^5 HeLa cells in 6-cm dishes) were transiently transfected, using the calcium phosphate precipitation method, with the cDNAs of the indicated proteins together with the β-galactosidase expression vector. In the experiments presented in FIGS. 14A-D and 15, each dish was transfected with 3.5 μg of the indicated MACH construct and 1.5 μg of pSV-β-gal. In the experiments presented in FIGS. 16A-D and 17-19, each dish was transfected with 2.5 μg of the indicated MACH or MORT1 construct (or, as control, empty vector) and 1.5 μg of pSV-β-gal. The cells were rinsed 6 to 10 h after transfection. The 293-EBNA and MCF7 cells were incubated for a further 18 h without additional treatment. The HeLa cells were incubated for 26 h after transfection and-then for 5 h in the presence of either anti-Fas.APO1 antibody (CH11, 0.5 μg/ml) or TNF (100 ng/ml), together with cycloheximide (10 μg/ml). The extent of cell death at the end of the incubation periods was assessed by determination of β-galactosidase expression, as described by Kumar et al, 1994.
In particular, FIGS. 14A-D show the morphology of human embryonic kidney 293-EBNA cells transiently expressing the indicated MACH isoforms. The arrows (FIG. 14B) point to apoptopic cells. Photographs were taken 26 h after transfection. […] Data are from three independent experiments with the 293-EBNA cells and two independent experiments with the MCF7 cells.

[2] = system: Fas/APO1-induced death of HeLa cells; experiment: Death of HeLa cells expressing Fas/APO1 induced by anti-Fas/APO1 antibody and cycloheximide; assay type: cell-based, human; settings: HeLa cells transiently expressing Fas/APO1; CH11 0.5 μg/ml, cycloheximide 10 μg/ml
Protocol: as §1
The HeLa cells were made responsive to Fas/APO1 by transient expression of this receptor. […] These protective effects indicate that MACHα is a necessary component of both the Fas/APO1- and the p55-R-induced signaling cascades for cell death.
In particular, FIGS. 16A-D show morphology of 293-EBNA cells in which cell death was induced by transient expression of a chimera comprised of the extracellular domain of the p55-R (amino acids 1-168) fused to the transmembrane and intracellular domains of Fas/APO1 (amino acids 153-319) (p55-Fas chimera) (FIGS. 16A and 16B), or by expression of the p55-R (FIGS. 16C and 16D), and of cells that were protected from these cytotoxic effects by their simultaneous transfection with MACHα1 (C360S) (FIGS. 16B and 16D). Photographs were taken 26 h after transfection. FIG. 17 illustrates the quantification of death induced in 293-EBNA cells by their transfection with p55-Fas chimera or with p55-R, together with an empty vector, a MORT1 deletion mutant lacking the MACH-binding region (MORT1 (92-208)), or MACHα molecules containing a nonfunctional CED3/ICE region. […] Data are from at least two independent experiments and are expressed as in FIGS. 14A-F and 15.

| Molecule | development of color (interaction with DNA-binding domain hybrid) (Lamin) | cell death of transfected MCF7 cells [1] | protection against death induced by anti-Fas/APO1 antibody and cycloheximide [2] |
| --- | --- | --- | --- |
| MACHβ1: MACH isoform, cDNA SEQ ID NO: 4, amino acid SEQ ID NO: 5; lacks the CED3/ICE homology region (protein) MDFSRNLYDIGEQLDSEDLASLKFLSLDYIPQRKQEPIKDALMLFQRLQEKRMLEESNLSFLKELLFRINRLDLLITYLNTRKEEMERELQTPGRAQISAYRVMLYQISEEVSRSELRSFKFLLQEEISKCKLDDDMNLLDIFIEMEKRVILGEGKLDILKRVCAQINKSLLKIINDYEEFSKERSSSLEGSPDEFSNDFGQSLPNEKQTSGILSDHQQSQFCKSTGESAQTSQH | −−− (“−−−” indicates the lack of development of color within 24 hrs. of the assay) | some slight cell death |  |
| MACHα1 (C360S): MACHα1 mutant in which the catalytic cysteine Cys360 is replaced by Ser (protein) MDFSRNLYDIGEQLDSEDLASLKFLSLDYIPQRKQEPIKDALMLFQRLQEKRMLEESNLSFLKELLFRINRLDLLITYLNTRKEEMERELQTPGRAQISAYRVMLYQISEEVSRSELRSFKFLLQEEISKCKLDDDMNLLDIFIEMEKRVILGEGKLDILKRVCAQINKSLLKIINDYEEFSKERSSSLEGSPDEFSNGEELCGVMTISDSPREQDSESQTLDKVYQMKSKPRGYCLIINNHNFAKAREKVPKLHSIRDRNGTHLDAGALTTTFEELHFEIKPHDDCTVEQIYEILKIYQLMDHSNMDCFICCILSHGDKGIIYGTDGQEAPIYELTSQFTGLKCPSLAGKPKVFFIQASQGDNYQKGIPVETDSEEQPYLEMDLSSPQTRYIPDEADFLLGMATVNNCVSYRNPAEGTWYIQSLCQSLRERCPRGDDILTILTEVNYEVSNKDDKKNMGKQMPQPTFTLRKKLVFPSD |  | No death | prevention |
